Drawing on publication PMC8716928 (2021), this text covers response for 51 variants.

First the molecules themselves.
B1: Fragment M1–25 of GvpM with NGFP fused at the C-terminus [Halobacterium salinarum] / GvpL with CGFP fused at the C-terminus [Halobacterium salinarum] (parent complex)
chain 1: MEPTKDETHAIVEFVDVLLRDGAVI
chain 2: MTDHRPSPEEEQTTANEERTVSNGRYLYCVVDTTSSESATLSTTGVDDNPVYVVEADGVGAVVHDCETVYETEDLEQVKRWLVTHQQVVDAASDAFGTPLPMRFDTVLEGGDASIERWLEDHYEGFRDELASFAGVWEYRINLLWDSAPFEETIADRDDRLRELRQRQQQSGAGKKFLLEKQSDQRLQELKRERRTELADQLKEAITPVVNDLTEQDTNTPLQDEHSSIEKEQIVRFAVLADEDDETALGDRLDTIVEHEGVEIRFTGPWPPYTFAPDIGK
B2: GvpM wild type, entire protein, with CGFP fused at the C-terminus [Halobacterium salinarum] / GvpL with NGFP fused at the N-terminus [Halobacterium salinarum] (parent complex)
chain 1: MEPTKDETHAIVEFVDVLLRDGAVIQADVIVTVADIPLIGISLRAAIAGMTTMTEYGLFEEWDAAHRQQSEAFTTSPTADRRED
chain 2: B1 chain 2
B3: GvpJ wild type with CGFP fused at the C-terminus [Halobacterium salinarum] / GvpL with NGFP fused at the N-terminus [Halobacterium salinarum] (parent complex)
chain 1: MSDPKPTRSQGDLAEMLEMLLDKGVVVNADIAVSVGDTELLGIELRAAIASFETAAEYGLEFPTGTDMERVESAANISPDQSDPASETQSETESTNPLSDDSTPTASTSAEETK
chain 2: B1 chain 2

In one experiment the parent is B1. Description: split-GFP; Hfx. volcanii transformants; parent: 65; read off a plot.
As for chain 1 MEPTKDETHAIVEFVDVLLADGAVI, the response is around 54. Regarding chain 1 MEATKDETHAIVEFVDVLLRDGAVI, the response is around 84. The same measure, in the same setting: the result for chain 1 MEPTKDETHAIVEAVDVLLRDGAVI reads around 57.

Turning to chain 1 MEPTKDETHAIVEFVAVLLRDGAVI, the response is around 46. On the same count and under the same terms, next, chain 1 MEPTKDETHAIVEFVDVLARDGAVI: around 81; chain 1 MEPTKDETHAIVEFVDVALRDGAVI: around 75; chain 1 MEPAKDETHAIVEFVDVLLRDGAVI: around 70. For chain 1 MEPTKDETHADVEFVDVLLRDGAVI, the response is around 110.

As to chain 1 MEPTKDETHAAVEFVDVLLRDGAVI, the response was around 84. As for chain 1 MEPTKDETHDIVEFVDVLLRDGAVI, the response was around 58. Take chain 1 MEPTKDETHAIVEFVDVLLRDGDVI: the response is around 94. On the same count and under the same terms, the result for chain 1 MEPTKDETHAIVEFADVLLRDGAVI reads around 100; that for chain 1 MEPTKDETAAIVEFVDVLLRDGAVI, around 62. In the case of chain 1 MEPTKDETHAIVAFVDVLLRDGAVI, the response was around 61. As to chain 1 MEPTKDETHAIVEFVDVLLRAGAVI, the response was around 67.

As for chain 1 MEPTKDETHAIVEFVDALLRDGAVI, the response is around 74.

As to chain 1 MEPTKDETHAIYEFVDVLLRDGAVI, the response was around 58. Regarding chain 1 MEPTKDETHAIVEFVDVLLRDAAVI, the response is around 86.

Turning to chain 1 MEPTKDETHAIVEFVDVLLRDGAAI, the response is around 74.

As to chain 1 MAPTKDETHAIVEFVDVLLRDGAVI, the response is around 67. Turning to chain 1 MEPTKDEAHAIVEFVDVLLRDGAVI, the response is around 110. Take chain 1 MEPTKDKTHAIVEFVDVLLRDGAVI: the response was around 80.

The next experiment covers variants of B2. Description: split-GFP; Hfx. volcanii transformants; parent: 7.8; read off a plot.
As to chain 1 MEPTKDETHAIVEFVDVLLRDGAVIQADVIVTVADIPLIGISLREAIAGMTTMTEYGLFEEWDAAHRQQSEAFTTSPTADRRED, the response was around 18. Consider chain 1 MEPTKDETHAIVEFVDVLLRDDAVIQADVIVTVADIPLIGISLRAAIAGMTTMTEYGLFEEWDAAHRQQSEAFTTSPTADRRED, for which the response is around 9.5.

For chain 1 MEPTKDETHAIVEFVDVLLRDGAVIQADVIVTVADIPLIGISLRAAAAGMTTMTEYGLFEEWDAAHRQQSEAFTTSPTADRRED, the response is around 7.1. For the variant chain 1 MEPTKDETHAIVEFVDVLLRDGAVIQADVIVTVADIPLIGISLRAEIAGMTTMTEYGLFEEWDAAHRQQSEAFTTSPTADRRED, the response was around 5.6. Regarding chain 1 MEPTKDETHAIVEFEDVLLRDGAVIQADVIVTVADIPLIGISLRAAIAGMTTMTEYGLFEEWDAAHRQQSEAFTTSPTADRRED, the response was around 6.4. As to chain 1 MEPTKDETHAIVEFVDVLLRDGDVIQADVIVTVADIPLIGISLRAAIAGMTTMTEYGLFEEWDAAHRQQSEAFTTSPTADRRED, the response was around 9.7.

The variants in the next experiment derive from B3. Description: split-GFP; Hfx. volcanii transformants; parent: 13; read off a plot.
For the variant chain 1 MSDPKPTRSQGDLAEMLEMLLDKGVVVNADIAVSVGDTELLGIELRAAAASFETAAEYGLEFPTGTDMERVESAANISPDQSDPASETQSETESTNPLSDDSTPTASTSAEETK, the response was around 18.

In the case of chain 1 MSDPKPTRSQGDLAAMLEMLLDKGVVVNADIAVSVGDTELLGIELRAAIASFETAAEYGLEFPTGTDMERVESAANISPDQSDPASETQSETESTNPLSDDSTPTASTSAEETK, the response was around 9.5. Turning to chain 1 MSDPKPTRSQGDLAEMLEMLLDKGVVVNADIAVSVGDTELLGIELRAAIDSFETAAEYGLEFPTGTDMERVESAANISPDQSDPASETQSETESTNPLSDDSTPTASTSAEETK, the response was around 17. Turning to chain 1 MSDPKPTRSQGDLAEMLEMLLDKGVVVNADIADSVGDTELLGIELRAAIASFETAAEYGLEFPTGTDMERVESAANISPDQSDPASETQSETESTNPLSDDSTPTASTSAEETK, the response was around 17. In the case of chain 1 MSDPKPTRSQGDLAEMLEMLLDKGVVVNADIAASVGDTELLGIELRAAIASFETAAEYGLEFPTGTDMERVESAANISPDQSDPASETQSETESTNPLSDDSTPTASTSAEETK, the response was around 18. Turning to chain 1 MSDPKPTRSQGDLAEMLEMLLDKGVVVNDDIAVSVGDTELLGIELRAAIASFETAAEYGLEFPTGTDMERVESAANISPDQSDPASETQSETESTNPLSDDSTPTASTSAEETK, the response was around 25.

With chain 1 MSDPKPTRSQGDLAEMLEMLLDKGVVVNADIAVSVGDTELLGIELRAAIAAFETAAEYGLEFPTGTDMERVESAANISPDQSDPASETQSETESTNPLSDDSTPTASTSAEETK, the response is around 17. For the variant chain 1 MSDPKPTRSQGDLAEMLEMILDKGVVVNADIAVSVGDTELLGIELRAAIASFETAAEYGLEFPTGTDMERVESAANISPDQSDPASETQSETESTNPLSDDSTPTASTSAEETK, the response was around 14. In the case of chain 1 MSDPKPTRSQGDLAEMLEMLLDKGVVVNADIAVSVGDTELLGIELRAAIASFETAAEYGLEFPTGTDMARVESAANISPDQSDPASETQSETESTNPLSDDSTPTASTSAEETK, the response was around 14.

Regarding chain 1 MSDPKPTRSQGDLAEMLEMLLNKGVVVNADIAVSVGDTELLGIELRAAIASFETAAEYGLEFPTGTDMERVESAANISPDQSDPASETQSETESTNPLSDDSTPTASTSAEETK, the response was around 14.

In the case of chain 1 MSDPKPTRSQGDLAEMLEMLLDKGVVVNADIAVSVGDTELLGIELRDAIASFETAAEYGLEFPTGTDMERVESAANISPDQSDPASETQSETESTNPLSDDSTPTASTSAEETK, the response is around 22. Turning to chain 1 MSDPKPTRSQGDLAEMLEMLLDKGVVVNADIAVSVGDTELLGIELRAAIASFETAAEEGLEFPTGTDMERVESAANISPDQSDPASETQSETESTNPLSDDSTPTASTSAEETK, the response was around 7.8. On to chain 1 MSDPKPTRSQGDLAEMAEMLLDKGVVVNADIAVSVGDTELLGIELRAAIASFETAAEYGLEFPTGTDMERVESAANISPDQSDPASETQSETESTNPLSDDSTPTASTSAEETK, for which the response is around 14. For the variant chain 1 MSDPKPTRSQGDLAEMLQMLLDKGVVVNADIAVSVGDTELLGIELRAAIASFETAAEYGLEFPTGTDMERVESAANISPDQSDPASETQSETESTNPLSDDSTPTASTSAEETK, the response is around 9. For the variant chain 1 MSDPKPTRSQGDLAEMLDMLLDKGVVVNADIAVSVGDTELLGIELRAAIASFETAAEYGLEFPTGTDMERVESAANISPDQSDPASETQSETESTNPLSDDSTPTASTSAEETK, the response was around 14.

For the variant chain 1 MSDPKPTRSQGDLAEMLAMLLDKGVVVNADIAVSVGDTELLGIELRAAIASFETAAEYGLEFPTGTDMERVESAANISPDQSDPASETQSETESTNPLSDDSTPTASTSAEETK, the response is around 9.5. Regarding chain 1 MSDPKPTRSQGDLAEMLRMLLDKGVVVNADIAVSVGDTELLGIELRAAIASFETAAEYGLEFPTGTDMERVESAANISPDQSDPASETQSETESTNPLSDDSTPTASTSAEETK, the response is around 9.2. Take chain 1 MSDPKPTRSQGDLAEMLEMLLDKAVVVNADIAVSVGDTELLGIELRAAIASFETAAEYGLEFPTGTDMERVESAANISPDQSDPASETQSETESTNPLSDDSTPTASTSAEETK: the response was around 7.2.

For chain 1 MSDPKPTRSQGDLAEALEMLLDKGVVVNADIAVSVGDTELLGIELRAAIASFETAAEYGLEFPTGTDMERVESAANISPDQSDPASETQSETESTNPLSDDSTPTASTSAEETK, the response is around 9.3. Regarding chain 1 MSDPKPTRSQGDLAEMLEELLDKGVVVNADIAVSVGDTELLGIELRAAIASFETAAEYGLEFPTGTDMERVESAANISPDQSDPASETQSETESTNPLSDDSTPTASTSAEETK, the response was around 7. As for chain 1 MSDPKPTRSQGDLAEMLEMLLDAGVVVNADIAVSVGDTELLGIELRAAIASFETAAEYGLEFPTGTDMERVESAANISPDQSDPASETQSETESTNPLSDDSTPTASTSAEETK, the response is around 14.

As for chain 1 MSDPKPTRSQGDLAEMLEMLLDRGVVVNADIAVSVGDTELLGIELRAAIASFETAAEYGLEFPTGTDMERVESAANISPDQSDPASETQSETESTNPLSDDSTPTASTSAEETK, the response was around 14. Consider chain 1 MSDPKPTRSQGDLAEMLEMLADKGVVVNADIAVSVGDTELLGIELRAAIASFETAAEYGLEFPTGTDMERVESAANISPDQSDPASETQSETESTNPLSDDSTPTASTSAEETK, for which the response is around 9.
